Data on four substances can be found in patent publication US20130035471A1.

In assay [1] the target is biotinylated IgG. Briefly: BIAcore; half-life calculated as 0.693/koff/60.
Assay [2] concerns the target biotinylated IgG. The experiment in a line: BIAcore, biotinylated IgG immobilised, mutein injected. A general note: In SPR one partner is held on a chip, and binding of the other changes the refractive index at the surface.

Sequence of 2-aa-loop mutein (streptavidin, loop7-8 replaced by N G) (P22629 other isoform, or with tags, fused parts or gaps mutant): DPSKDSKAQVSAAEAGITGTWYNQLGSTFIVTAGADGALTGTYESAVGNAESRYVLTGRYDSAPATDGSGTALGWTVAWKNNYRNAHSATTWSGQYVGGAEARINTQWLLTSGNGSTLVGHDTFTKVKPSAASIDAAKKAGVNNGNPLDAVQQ
Sequence of 6-aa-loop mutein (streptavidin, loop7-8 replaced by D S N G S G) (P22629 other isoform, or with tags, fused parts or gaps mutant): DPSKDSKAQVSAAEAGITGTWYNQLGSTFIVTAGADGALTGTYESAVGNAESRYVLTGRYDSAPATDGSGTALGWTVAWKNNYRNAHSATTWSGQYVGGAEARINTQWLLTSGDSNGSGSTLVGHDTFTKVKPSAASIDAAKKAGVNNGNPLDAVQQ

On to “8-aa-loop-H127C mutein (streptavidin, loop7-8 replaced by D S S N G S D G, with H127C) (from UniProt P22629 25-183)”, for which, in the assay with biotinylated IgG [1], the t1/2 was 0.45 h. In the assay with biotinylated IgG [2], this substance showed a Kd of 19 nM, a koff of 0.000428 s⁻¹ and a kon of 22100 M⁻¹ s⁻¹.

As for “6-aa-loop mutein (streptavidin, loop7-8 replaced by D S N G S G) (from UniProt P22629 25-183)”, the t1/2 in the assay with biotinylated IgG [1] was 2.53 h. In the assay with biotinylated IgG [2], this substance had a Kd of 3.13 nM, a koff of 7.59e-05 s⁻¹ and a kon of 24300 M⁻¹ s⁻¹.

Consider “ΔW-HC mutein (streptavidin with Trp-120 deleted and H127C) (from UniProt P22629 25-183)”, for which the t1/2 with biotinylated IgG [1] was 0.482 h. In the assay with biotinylated IgG [2], this substance came in with a Kd of 8.1 nM, a koff of 0.0004 s⁻¹ and a kon of 49600 M⁻¹ s⁻¹.

As for “2-aa-loop mutein (streptavidin, loop7-8 replaced by N G) (from UniProt P22629 25-183)”, the t1/2 with biotinylated IgG [1] was 2.75 h. In the assay with biotinylated IgG [2], this substance displayed a Kd of 1.12 nM, a koff of 7.02e-05 s⁻¹ and an on-rate (kon) of 63000 M⁻¹ s⁻¹.

A word on the Kd: it is the equilibrium constant for the complex coming apart. Lower therefore signals a tighter complex. In general, koff refers to the first-order rate constant of dissociation. Broadly, the kon is a measure of how fast the partners come together. A high value points to fast association.
